US20250002562A1 (Scripps Research, published 2025)
Substitutions are numbered along the chain they refer to.

B1: SKAI-DS1 scFv (scFv, V domains shown)
VH: EVQLLESGGGLVQTGGSLRLSCAASGFTFSDYAMSWVRQAPGKGLEWVSWIYSNDGNKYYADSVKGRFTISRDNSKNTLYLQMNSLRAEDTAVYYCARFPVPSWRNTWSSYDAMDVWGQGTLVTV
VL: QSVLTQPPSASGTPGRRVTISCTGSSSNIGSNYVSWYQQLPGTAPKLLIYSDSNRPSGVPDRFSGSKSGTSASLAISGLRSEDEADYYCGTWDASLSGYVFGGGTKLTVL
B2: SKAI-DS7 scFv (scFv, V domains shown)
VH: EVQLLESGGGLVQTGGSLRLSCAASGFTFSDYAMSWVRQAPGKGLEWVSGIYHSGGNTYYADSVKGRFTISRDNSKNTLYLQMNSLRAEDTAVYYCARDAGPFDYWGQGTLVAV
VL: QSVLTQPPSASGTPGQRVTISCSGSSSNIGSNAVSWYQQLPGTAPKLLIYDNNHRPSGVPDRFSGSKSGTSASLAISGLRSEDEADYYCGSWDDSLNAYVFGGGTKLTVL
B3: SKAI-DS1 (antibody, V domains shown)
VH: B1 VH
VL: B1 VL
notes: also called SKAI-DS1 human IgG antibody
B4: SKAI-DS64 (antibody, V domains shown)
VH: B2 VH with T14P, A33S, G55D, N57S, T58K, D99F, A100D, G101P, P102V, A113T
VL: B2 VL
notes: also called SKAI-DS64 human IgG antibody
B5: SKAI-DS66 (antibody, V domains shown)
VH: B2 VH with T14P, G50A, H53P, S54G, N57S, D99N, A100L, G101F, P102G, A113T
VL: B2 VL with S23T, S35Y, N52D, N53S, H54N, N97S
notes: also called SKAI-DS66 human IgG antibody
B6: SKAI-DS16 (antibody, V domains shown)
VH: EVQLLESGGGLVQPGGSLRLSCAASGFTFSDYSMSWVRQAPGKGLEWVSWIYPDNGNTYYADSVKGRFTISRDNSKNTLYLQMNSLRAEDTAVYYCAKPKTSFDYWGQGTLVTV
VL: B1 VL with R16Q, T23S, S35Y, S51D, D61G, A94Y, S97N
notes: also called SKAI-DS16 human IgG antibody
B7: SKAI-DS3 (antibody, V domains shown)
VH: EVQLLESGGGLVQPGGSLRLSCAASGFTFSDYSMSWVRQAPGKGLEWVSAISSDSSSTYYADSVKGRFTISRDNSENTLYLQMNSLRAEDTAVYYCAKAILRCIPLGCYYADAMDVWGQGTLVTV
VL: B1 VL with R16Q, Y33D, S35T, S51A, N54K, T91A, A94Y, G98A
notes: also called SKAI-DS3 human IgG antibody
B8: SKAI-DS15 (antibody, V domains shown)
VH: EVQLLESGGGLVQPGGSLRLSCAASGFTFSDYDMSWVRQAPGKGLEWVSMIYSGSSSKYYADSVKGRFTISRDNSKNTLYLQMNSLRAEDTAVYYCARVTGTCHSGSCYYSDAMDVWGQGTLVTV
VL: B1 VL with R16Q, T23S, Y33D, S35N, S51D, T91A, A94D
notes: also called SKAI-DS15 human IgG antibody

Each binder was assayed against T1, SARS-CoV-2-B.1.617.2 (Delta variant) RBD (SARS-CoV-2 B.1.617.2 (Delta variant), UniProt P0DTC2 319-541) (assay: ELISA of scFv from individual colonies on RBD antigens).
T1 construct: domain: RBD; also called Delta RBD; Delta antigen
B1: binds. B2: binds.

What follows are binders tested against T2, Omicron (B.1.1.529) RBD antigen (Genscript) (SARS-CoV2 Omicron variant (B.1.1.529), UniProt P0DTC2 319-541) (assay: ELISA on RBD antigen, human IgG at 1 µg/mL, O.D. 450 nm).
T2 construct: domain: RBD; also called Omicron RBD; Omicron variant RBD
B3: no binding (tested: 1 µg/mL). B4: no binding (tested: 1 µg/mL). B5: no binding (tested: 1 µg/mL). B6: no binding (tested: 1 µg/mL). B7: no binding (tested: 1 µg/mL). B8: no binding (tested: 1 µg/mL).

Each binder was assayed against T1, SARS-CoV-2-B.1.617.2 (Delta variant) RBD in the same assay as above.
B3: binds. B4: binds. B5: binds. B6: no binding (tested: 1 µg/mL). B7: no binding (tested: 1 µg/mL). B8: no binding (tested: 1 µg/mL).
